# Read-outs that look alike come from different tables or passages of the source.
# Experiments:
# [1] = kinetic analysis, non-endpoint assay at 23° C.; type: biochemical; conditions: standard error in parenthetical
# Method in brief: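 Purified C-terminal 6-His-tagged recombinant enzymes expressed in bacteria; quizalofop-P or 2,4-D as substrate. Vmax reported as specific activity (umol herbicide product mg enzyme-1 min-1) and Km as mM herbicide substrate, with standard error.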
# F1 hybrid maize plants [2] = assay: efficacy field trial with segregating F1 hybrid plants; type: in vivo; conditions: for % Injury from V4 2,4-D / % Injury from V8 2,4-D: 2,4-D amine 2× at VE-V2 (plus quizalofop-P 0.5×), V4, V8; for % Injury from V4 Quizalofop / % Injury from V8 Quizalofop: quizalofop-P 2× at VE-V2, V4, V8
# Description: Ten unique engineered proteins optimized for activity at higher temperatures were selected for maize transformation and analysis in plants. DNA constructs were produced for expressing these engineered proteins with codon usage optimized for monocot expression using methods known to those skilled in the art. Enhancers, promoters, leaders, introns, CTPs, and 3′UTRs were tested in various combinations with the engineered proteins in these DNA constructs. The DNA constructs were used to transform immature maize (LH244) embryos with these vectors using Agrobacterium tumifaciens and standard methods known in the art. Regenerated R0 transgenic plantlets were grown in the green house.
# Transgenic R0 maize plants were screened by the application of quizalofop-P (2×) plus 2,4-D (2×) at 7 to 10 days following transplant into plugs (generally corresponding to V3-V4 growth stage). All constructs tested produced plants containing unique events that passed the RO screen. The R0 plants were selfed to generate R1 homozygous seed and the R0 was also used as the male to cross with inbred plants containing maize event MON89034 to generate segregating F1 hybrid seed for efficacy field trials.
# An efficacy field trial was conducted with segregating F1 hybrid plants, with 50% hemizygous and 50% null for the transgene. Tolerance to quizalofop-P (2×) plus 2,4-D (2×) was assessed using two herbicide application regimens: (1) quizalofop-P (Assure II) at 0.16 lb ai/acre (2×) plus 0.25% v/v non-ionic surfactant (NIS) applied at VE-V2 growth stage followed by the same at V4 growth stage followed by the same at V8 growth stage and (2) 2,4-D amine at 2 lb ae/acre (2×) plus quizalofop-P at 0.04 lb ai/acre (0.5×) plus 0.25% v/v NIS applied at VE-V2 growth stage followed by 2,4-D amine at 2 lb ae/acre (2×) plus 0.25% v/v NIS applied at V4 growth stage followed by the same at V8 growth stage. The 50% of the plants that were null for transgene were removed by the first quizalofop-P application at VE-V2 growth stage. Plots were visually rated 10-14 days after application for crop injury on a scale of 0 to 100 with “0” being none and “100” being complete crop destruction. […] The percentage injury rating with 2× application of 2,4-D at V8 growth stage ranged from a high of 40% to a low of 0. Similarly, the percentage injury rating with 2× application of quizalofop-P at V8 growth stage ranged from a high of 90% to a low of 0. Variation in injury rating between plants expressing the same protein is likely due to variations in construct design or transgene insertion location.
# F1 hybrid maize plants [3] = assay: efficacy field trial for quizalofop-P tolerance and clethodim sensitivity; type: in vivo; conditions: for average injury rating, V4 Growth Stage, 4x Quizalofop / average injury rating, V8 Growth Stage, 4x Quizalofop / average injury rating, V4 Growth Stage, 8x Quizalofop / average injury rating, V8 Growth Stage, 8x Quizalofop / average injury rating, V4 Growth Stage, 16x Quizalofop / average injury rating, V8 Growth Stage, 16x Quizalofop / average injury rating, V8 Growth Stage, 1x Clethodim: scale 0 to 100; for average injury rating, V4 Growth Stage, 4x Quizalofop / average injury rating, V8 Growth Stage, 4x Quizalofop: 0.32 lb ai/acre at VE-V2, V4, V8; for average injury rating, V4 Growth Stage, 4x Quizalofop / average injury rating, V8 Growth Stage, 4x Quizalofop / average injury rating, V4 Growth Stage, 8x Quizalofop / average injury rating, V8 Growth Stage, 8x Quizalofop / average injury rating, V4 Growth Stage, 16x Quizalofop / average injury rating, V8 Growth Stage, 16x Quizalofop: with CTP unless label says no CTP; for average injury rating, V4 Growth Stage, 8x Quizalofop / average injury rating, V8 Growth Stage, 8x Quizalofop: 0.64 lb ai/acre at VE-V2, V4, V8; for average injury rating, V4 Growth Stage, 16x Quizalofop / average injury rating, V8 Growth Stage, 16x Quizalofop: 1.28 lb ai/acre at VE-V2, V4, V8; for average injury rating, V8 Growth Stage, 1x Clethodim: clethodim 0.25 lb ai/acre at V8, volunteer control; for tolerance to the quizalofop-P application: 1.28 lb ai/acre (16×)
# Description: Separate trait efficacy field trials for quizalofop-P and 2,4-D were conducted at two locations cach with F1 hybrid transgenic plants produced by crossing an inbred plant containing maize event MON89034 with an R1 plant containing MON-HT55 (with a CTP), MON-HTI (with or without a CTP), MON-HT2 (with or without a CTP), MON-HT3 (with a CTP), MON-HT4 (with a CTP), MON-HT5 (with a CTP), MON-HT6 (with a CTP), or MON-HT7 (with a CTP). Transgenic F1 hybrid plants containing maize events NK603×MON89034 were used for comparison as a control.
# In the efficacy field trial for quizalofop-P tolerance and clethodim sensitivity, one of four herbicide treatments was used: (1) quizalofop-P (Assure II) at 0.32 lb ai/acre (4×) plus 0.25% v/v non-ionic surfactant (NIS) applied at VE-V2 growth stage followed by the same at V4 growth stage followed by the same at V8 growth stage; (2) quizalofop-P at 0.64 lb ai/acre (8×) plus 0.25% v/v NIS applied at VE to V2 growth stage followed by the same at V4 growth stage followed by the same at V8 growth stage; (3) quizalofop-P at 1.28 lb ai/acre (16×) plus 0.25% v/v NIS applied at VE to V2 growth stage followed by the same at V4 growth stage followed by the same at V8growth stage; or (4) clethodim at 0.25 lb ai/acre (1×) plus 0.25% v/v NIS applied at V8 growth stage. Plots were visually rated 10-14 days after application for crop injury on a scale of 0 to 100with “0” being none and “100” being complete crop destruction. Tables 14 and 15 show the average injury ratings after herbicide application at V4 or V8 growth stage, respectively.
# [4] = 23° C., purified His-tagged protein
# [5] = 23° C., purified His-tagged protein, read-out: Km Quizalofop
# [6] = NDB = activity not robust enough for kinetic characterization
# [7] = NDB = activity not robust enough for kinetic characterization, read-out: Km 2,4-D
molecule,measurement,setting,value
"MON-HT4: engineered oxygenase protein, amino acid sequence SEQ ID NO:25 (protein) MHAALTPLTNKYRFIDVQPLTGVLGAEITGVDLREPLDDSTWNEILDAFHTYQVIYFPGQAITNEQHIAFSRRFGPVDPVPLLKSIEGYPEVQMIRREANESGRVIGDDWHTDSTFLDAPPAAVVMYAREVPPYGGDTGFLSMYTAWETLSPTMQATIEGLNVVHSATRVFGSLYQAQNRRYSNTSVKVMDVDAGDRETVHPLVVSHPVTGRRALYCNQVYCQRIEGMTDAESKSLLQFLYEHATKFDFTCRVRWKKDQVLVWDNLCTMHRAVPDYAGKFRYLTRTTVAGDKPSR",Vmax Quizalofop,[1]; [4],0.30 (−0.02) umol herbicide product mg enzyme-1 min-1
same,Km,[1]; [5],240 µM
same,"Km 2,4-D",[1]; [6],NDB
same,"Vmax 2,4-D",[1]; [6],NDB
same,"% Injury from V4 2,4-D",F1 hybrid maize plants [2]; CTP A,22.3%
same,"% Injury from V8 2,4-D",F1 hybrid maize plants [2]; CTP A,12.3%
same,% Injury from V4 Quizalofop,F1 hybrid maize plants [2]; CTP A,6.1%
same,% Injury from V8 Quizalofop,F1 hybrid maize plants [2]; CTP A,0%
same,"average injury rating, V4 Growth Stage, 4x Quizalofop",F1 hybrid maize plants [3],2.8
same,"average injury rating, V8 Growth Stage, 4x Quizalofop",F1 hybrid maize plants [3],3.3
same,"average injury rating, V4 Growth Stage, 8x Quizalofop",F1 hybrid maize plants [3],3.3
same,"average injury rating, V8 Growth Stage, 8x Quizalofop",F1 hybrid maize plants [3],3.3
same,"average injury rating, V4 Growth Stage, 16x Quizalofop",F1 hybrid maize plants [3],13.8
same,"average injury rating, V8 Growth Stage, 16x Quizalofop",F1 hybrid maize plants [3],8.0
same,"average injury rating, V8 Growth Stage, 1x Clethodim",F1 hybrid maize plants [3],94.5
"MON-HT2: engineered oxygenase protein, amino acid sequence SEQ ID NO:18 (protein) MHAALTPLTNKYRFIDVQPLTGVLGAEITGVDLREPLDDSTWNEILDAFHTYQVIYFPGQAITNEQHIAFSRRFGPVDPVPLLKSIEGYPEVQMIRREANESSRVIGDDWHSDSTFLDAPPAAVVMRAIEVPEYGGDTGFLSMYSAWETLSPTMQATIEGLNVVHSATKVFGSLYQATNWRFSNTSVKVMDVDAGDRETVHPLVVTHPVTGRRALYCNQVYCQKIQGMTDAESKSLLQFLYEHATKFDFTCRVRWKKDQVLVWDNLCTMHRAAPDYAGKFRYLTRTTVAGDKPSR",Vmax Quizalofop,[1]; [4],1.41 (−0.11) umol herbicide product mg enzyme-1 min-1
same,Km,[1]; [5],410 µM
same,"Vmax 2,4-D",[1]; [6],0.23 (−0.01) umol herbicide product mg enzyme-1 min-1
same,Km,[1]; [7],40 µM
same,"% Injury from V4 2,4-D",F1 hybrid maize plants [2]; CTP A,20%
same,"% Injury from V8 2,4-D",F1 hybrid maize plants [2]; CTP A,34.17%
same,% Injury from V4 Quizalofop,F1 hybrid maize plants [2]; CTP A,0%
same,% Injury from V8 Quizalofop,F1 hybrid maize plants [2]; CTP A,0%
same,"% Injury from V4 2,4-D",F1 hybrid maize plants [2]; CTP B,10.56%
same,"% Injury from V8 2,4-D",F1 hybrid maize plants [2]; CTP B,13.33%
same,% Injury from V4 Quizalofop,F1 hybrid maize plants [2]; CTP B,11.67%
same,% Injury from V8 Quizalofop,F1 hybrid maize plants [2]; CTP B,11.67%
same,"% Injury from V4 2,4-D",F1 hybrid maize plants [2]; CTP C,12%
same,"% Injury from V8 2,4-D",F1 hybrid maize plants [2]; CTP C,12%
same,% Injury from V4 Quizalofop,F1 hybrid maize plants [2]; CTP C,14.33%
same,% Injury from V8 Quizalofop,F1 hybrid maize plants [2]; CTP C,14.33%
same,"% Injury from V4 2,4-D",F1 hybrid maize plants [2]; CTP None,20%
same,"% Injury from V8 2,4-D",F1 hybrid maize plants [2]; CTP None,33.75%
same,% Injury from V4 Quizalofop,F1 hybrid maize plants [2]; CTP None,0%
same,% Injury from V8 Quizalofop,F1 hybrid maize plants [2]; CTP None,0%
same,tolerance to the quizalofop-P application,"F1 hybrid maize plants [3]; operably linked to a CTP, FIG. 5A",robust tolerance
same,"average injury rating, V4 Growth Stage, 4x Quizalofop",F1 hybrid maize plants [3],1.5
same,"average injury rating, V8 Growth Stage, 4x Quizalofop",F1 hybrid maize plants [3],2.5
same,"average injury rating, V4 Growth Stage, 4x Quizalofop",F1 hybrid maize plants [3]; listed as MON-HT2 (no CTP),42.5
same,"average injury rating, V8 Growth Stage, 4x Quizalofop",F1 hybrid maize plants [3]; listed as MON-HT2 (no CTP),16.3
same,"average injury rating, V4 Growth Stage, 8x Quizalofop",F1 hybrid maize plants [3],0.8
same,"average injury rating, V8 Growth Stage, 8x Quizalofop",F1 hybrid maize plants [3],3.8
same,"average injury rating, V4 Growth Stage, 8x Quizalofop",F1 hybrid maize plants [3]; listed as MON-HT2 (no CTP),76.3
same,"average injury rating, V8 Growth Stage, 8x Quizalofop",F1 hybrid maize plants [3]; listed as MON-HT2 (no CTP),52.5
same,"average injury rating, V4 Growth Stage, 16x Quizalofop",F1 hybrid maize plants [3],10.0
same,"average injury rating, V8 Growth Stage, 16x Quizalofop",F1 hybrid maize plants [3],4.8
same,"average injury rating, V4 Growth Stage, 16x Quizalofop",F1 hybrid maize plants [3]; listed as MON-HT2 (no CTP),82.5
same,"average injury rating, V8 Growth Stage, 16x Quizalofop",F1 hybrid maize plants [3]; listed as MON-HT2 (no CTP),77.5
same,"average injury rating, V8 Growth Stage, 1x Clethodim",F1 hybrid maize plants [3],93.3
same,"average injury rating, V8 Growth Stage, 1x Clethodim",F1 hybrid maize plants [3]; listed as MON-HT2 (no CTP),92.0
same,tolerance to the quizalofop-P application,"F1 hybrid maize plants [3]; without a CTP, FIG. 5B",moderate to poor tolerance
"MON-HT3: engineered oxygenase protein, amino acid sequence SEQ ID NO:22 (protein) MHAALSPLSQRFERIAVQPLTGVLGAEITGVDLREPLDDSTWNEILDAFHTYQVIYFPGQAITNEQHIAFSRRFGPVDPVPLLKSIEGYPEVQMIRREANESGRVIGDDWHTDSTFLDAPPAAVVMYAKEVPPYGGDTLFASMYTAWETLSPTMQATIEGLNVVHSATRVFGSLYQAQNRRFSNTSVKVMDVDAGDRETVHPLVVTHPETGRKGLYVNQVYCQRIEGMSEKESEPLLSFLFAHATKPEFTCRVRWQEGQVLVWDNLCTQHFAVPDYAGKFRYLTRTTVGGVRPAR",Vmax Quizalofop,[1]; [4],0.77 (−0.04) umol herbicide product mg enzyme-1 min-1
same,Km,[1]; [5],380 µM
same,"Vmax 2,4-D",[1]; [6],0.10 (−0.01) umol herbicide product mg enzyme-1 min-1
same,Km,[1]; [7],270 µM
same,"% Injury from V4 2,4-D",F1 hybrid maize plants [2]; CTP A,21.7%
same,"% Injury from V8 2,4-D",F1 hybrid maize plants [2]; CTP A,9.2%
same,% Injury from V4 Quizalofop,F1 hybrid maize plants [2]; CTP A,1.6%
same,% Injury from V8 Quizalofop,F1 hybrid maize plants [2]; CTP A,0.5%
same,"average injury rating, V4 Growth Stage, 4x Quizalofop",F1 hybrid maize plants [3],0.8
same,"average injury rating, V8 Growth Stage, 4x Quizalofop",F1 hybrid maize plants [3],2.5
same,"average injury rating, V4 Growth Stage, 8x Quizalofop",F1 hybrid maize plants [3],0.0
same,"average injury rating, V8 Growth Stage, 8x Quizalofop",F1 hybrid maize plants [3],2.0
same,"average injury rating, V4 Growth Stage, 16x Quizalofop",F1 hybrid maize plants [3],4.3
same,"average injury rating, V8 Growth Stage, 16x Quizalofop",F1 hybrid maize plants [3],6.0
same,"average injury rating, V8 Growth Stage, 1x Clethodim",F1 hybrid maize plants [3],94.5
